{"source": "paper PMC10175506", "about": "“Cryo-electron microscopy of the f1 filamentous phage reveals insights into viral infection and assembly” (Nature Communications, 2023)", "binders": {"B1": {"name": "pVI, minor capsid protein of f1 phage (natural protein, UniProt P69531 1-112, looked up)", "chain": "MPVLLGIPLLLRFLGFLLVTLFGYLLTFLKKGFGKIAIAISLFLALIIGLNSILVGYLSDISAQLPSDFVQGVQLILPSNALPCFYVILSVKAAIFIFDVKQKIVSYLDWDK", "notes": "density observed for the entire protein; Five copies stand in the pointy tip of the nanorod; source: expressed from helper plasmid pHP1YM in double-transformed host cells, assembled into f1-derived nanorods; nanorods purified from the supernatant (PEG, CsCl density gradient, anion exchange)"}, "B2": {"name": "pVII, minor capsid protein of f1 phage (natural protein, UniProt P69534 1-33, looked up)", "chain": "MEQVADFDTIYQAMIQISVVLCFALGIIAGGQR", "notes": "the five N-terminal residues (MEQVA) are not visible in the map; Arg 33 is the C-terminal residue; Five copies stand in the round tip of the nanorod; source: expressed from helper plasmid pHP1YM in double-transformed host cells, assembled into f1-derived nanorods; nanorods purified from the supernatant (PEG, CsCl density gradient, anion exchange)"}, "B3": {"name": "pIX, minor capsid protein of f1 phage (natural protein, UniProt P69537 1-32, looked up)", "chain": "MSVLVYSFASFVLGWCLRSGITYFTRLMETSS", "notes": "Five copies stand in the round tip of the nanorod; source: expressed from helper plasmid pHP1YM in double-transformed host cells, assembled into f1-derived nanorods; nanorods purified from the supernatant (PEG, CsCl density gradient, anion exchange)"}}, "key": {"[1]": {"biological_target": "the molecule itself", "assay": "cryo-EM structure; purified f1-derived nanorods (529-nt ssDNA) plunge-frozen; map of the pointy tip, 5-fold symmetry applied, 2.9 Å"}, "[2]": {"biological_target": "the molecule itself", "assay": "cryo-EM structure; purified f1-derived nanorods (529-nt ssDNA) plunge-frozen; map of the round tip, 5-fold symmetry applied, 2.8 Å"}, "[3]": {"biological_target": "B2", "assay": "cryo-EM structure; purified f1-derived nanorods (529-nt ssDNA) plunge-frozen; map of the round tip, 5-fold symmetry applied, 2.8 Å", "conditions": "both partners purified"}}, "data": [{"binder": "B1", "values": [{"measurement": "stoichiometry N", "setting": "[1]", "value": 5}]}, {"binder": "B2", "values": [{"measurement": "stoichiometry N", "setting": "[2]", "value": 5}]}, {"binder": "B3", "values": [{"measurement": "binding result", "setting": "[3]", "value": "binds"}]}]}
